{"source": "patent US20200123270A1", "about": "(Astellas, published 2020)", "molecules": {"B1": {"name": "anti-human CEACAM5 antibody Fab fragment PB009-01 (Fab, V domains shown)", "VH": "EVQLVESGGGLVQPGGSLRLSCAASGFNIRDTYMHWVRQAPGKGLEWVARIDPANGNSRYVPKFQGRFTISADTSRNTAYLQMNSLRAEDTAVYYCAPFGYYVSDYAMAYWGQGTLVTVSS", "VL": "DIQLTQSPSSLSASVGDRVTITCRAGESVDIFGVGFLHWYQQKPGKAPKLLIYRASNLESGIPSRFSGSGSRTDFTLTISSLQPEDFATYYCQQTNEDPYTFGQGTKVEIKR", "notes": "Humanized and redesigned from mouse anti-human CEACAM5 antibody T84.66"}, "B2": {"name": "PB009-02 (Fab fragment PB009-01 bound to DFO via a linker) (Fab, V domains shown)", "VH": "B1 VH", "VL": "B1 VL", "modifications": "DFO bound via linker -C(=S)-NH-(1,4-phenylene)-NH-C(=S)- (from p-SCN-Bn-DFO); at least 3 to 10 DFO ligands per Fab by mass spectrometry; modified residues and their split between the chains not …", "notes": "Chemical conjugate of PB009-01 with the chelator DFO"}}, "key": {"[1]": {"biological_target": "human CEACAM5 (R&D Systems, Inc.), biotinylated (human) (UniProt P06731)", "experiment": "SPR (Biacore T200), biotinylated human CEACAM5 captured on chip, Fab as analyte"}, "[2]": {"biological_target": "human CEACAM5 (R&D Systems, Inc.), biotinylated (human) (UniProt P06731)", "experiment": "SPR (Biacore T200), biotinylated human CEACAM5 captured on chip, Fab conjugate as analyte"}, "[3]": {"biological_target": "T1, human CEACAM5 (R&D Systems, Inc.), biotinylated (human, UniProt P06731 35-685, biotinylated with Biotin Labeling Kit-NH2; sites not stated)", "T1 construct": "Bought protein, biotinylated and captured on the sensor chip with the Biotin CAPture Kit", "T1 sequence (looked up)": "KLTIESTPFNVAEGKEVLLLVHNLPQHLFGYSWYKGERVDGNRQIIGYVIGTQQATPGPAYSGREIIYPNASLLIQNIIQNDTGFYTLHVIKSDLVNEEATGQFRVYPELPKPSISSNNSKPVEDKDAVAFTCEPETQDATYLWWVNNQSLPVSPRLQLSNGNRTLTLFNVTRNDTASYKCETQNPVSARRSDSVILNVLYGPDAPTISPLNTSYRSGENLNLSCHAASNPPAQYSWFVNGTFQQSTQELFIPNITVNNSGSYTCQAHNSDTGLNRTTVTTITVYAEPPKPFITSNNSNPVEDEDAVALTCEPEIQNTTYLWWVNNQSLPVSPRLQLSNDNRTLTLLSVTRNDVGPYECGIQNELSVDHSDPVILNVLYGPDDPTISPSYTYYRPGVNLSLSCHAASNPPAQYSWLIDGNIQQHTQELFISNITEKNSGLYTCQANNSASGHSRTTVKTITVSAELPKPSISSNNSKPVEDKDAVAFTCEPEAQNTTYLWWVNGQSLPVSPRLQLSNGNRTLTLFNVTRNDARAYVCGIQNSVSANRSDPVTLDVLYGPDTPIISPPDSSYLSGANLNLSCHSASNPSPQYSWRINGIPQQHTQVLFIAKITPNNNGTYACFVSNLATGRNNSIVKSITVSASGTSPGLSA", "experiment": "SPR (Biacore T200), biotinylated human CEACAM5 captured on chip, Fab as analyte", "method": "(§1) The analysis by SPR was conducted using Biacore T200 (GE Healthcare Japan Corp.). 10 μg/mL human CEACAM5 (R&D Systems, Inc.) biotinylated with Biotin CAPture Kit, Series S (GE Healthcare Japan Corp.) and Biotin Labeling Kit-NH₂ (Dojindo Laboratories) was added to the surface of the sensor chip at a flow rate of 5 μL/min for 2 minutes, and immobilized thereonto. PB009-01, PB009-02, M5A-Fab and M5A-Fab-DFO were diluted with HBS-EP+ solution (GE Healthcare Japan Corp.) into 6 series at a 2-fold ratio from 400 nM, and 100 μL each was added to the channel at a flow rate of 50 μL/min. In this measurement system, the dissociation constant (KD) of PB009-01, PB009-02, M5A-Fab or M5A-Fab-DFO for human CEACAM5 was calculated using data analysis software (BIA Evaluation, GE Healthcare Japan Corp.). As a result, as shown in the table given below, the binding activity of M5A-Fab was attenuated by the binding of DFO, whereas the binding activity of PB009-01 was not attenuated by the binding of DFO."}, "[4]": {"biological_target": "T1, human CEACAM5 (R&D Systems, Inc.), …", "experiment": "SPR (Biacore T200), biotinylated human CEACAM5 captured on chip, Fab conjugate as analyte", "method": "In order to measure the detailed binding activity of PB009-02, analysis was conducted by SPR. In this Example, a Fab fragment of M5A (referred to as M5A-Fab), a humanized antibody of T84.66, was used as a comparative Fab fragment. M5A-Fab bound to DFO via a linker (referred to as M5A-Fab-DFO) was prepared by use of the method described in Example 2.\nas §1"}}}
{"molecule": "Fab fragment of M5A, a humanized antibody of T84.66", "values": [{"measurement": "Kd", "setting": "[1]", "result": 0.16, "unit": "nM"}]}
{"molecule": "M5A-Fab bound to DFO via a linker", "values": [{"measurement": "Kd", "setting": "[2]", "result": 9.6, "unit": "nM"}]}
{"molecule": "B1", "values": [{"measurement": "Kd", "setting": "[3]", "result": 0.17, "unit": "nM"}]}
{"molecule": "B2", "values": [{"measurement": "Kd", "setting": "[4]", "result": 0.61, "unit": "nM"}]}
